B1: Kv2.2 (natural protein)
chain: MAEKAPPGLNRKTSRSTLSLPPEPVDIIRSKTCSRRVKINVGGLNHEVLWRTLDRLPRTRLGKLRDCNTHESLLEVCDDYNLNENEYFFDRHPGAFTSILNFYRTGKLHMMEEMCALSFGQELDYWGIDEIYLESCCQARYHQKKEQMNEELRREAETMREREGEEFDNTCCPEKRKKLWDLLEKPNSSVAAKILAIVSILFIVLSTIALSLNTLPELQENDEFGQPSDNRKLAHVEAVCIAWFTMEYLLRFLSSPNKWKFFKGPLNVIDLLAILPYYVTIFLTESNKSVLQFQNVRRVVQIFRIMRILRILKLARHSTGLQSLGFTLRRSYNELGLLILFLAMGIMIFSSLVFFAEKDEDATKFTSIPASFWWATITMTTVGYGDIYPKTLLGKIVGGLCCIAGVLVIALPIPIIVNNFSEFYKEQKRQEKAIKRREALERAKRNGSIVSMNLKDAFARSMELIDVAVEKAGESANTKDSVDDNHLSPSRWKWARKALSETSSNKSYENKYQEVSQNDSHEHLNNTSSSSPQHLSAQKLEMLYNEITKTQPHSHPNPDCQEQPERPCVYEEEIEMEEVICPQEQLAVAQTEVIVDMKSTSSIDSFTSCATDFTETERSPLPPPSASHLQMKFPTDLPGTDEHQRARAPPFLTLSRDKGPAAREAAVDYAPIDITVNLDAGASHGPLQPDSASDSPKSSLKGSNPLKSRSLKVNFQENRASAPQTPPSTARPLPVTTADFPLTTPQHMSTILLEEALPQGQPPLLEADDSAHCQGPSKGFSPRFPKQKLFPFSSRERRSFTEIDTGEDEDFLDLQRSRPDKQADPSPNCLADKPGDARDSLREEGCVGSSSPQNTDHNCRQDIYQAVGEVKKDSSQEGYKMENHLFAPEIHSNPGDTGHCPTRETSM
B2: Kv5.1 (natural protein)
chain: MDASAEQSLPEPGSQDSVAGEDIEIVVNVGGVRQVLYGDLLSQYPETRLAELINCLAGGYDTIFSLCDDYDPGKREFYFDRDPDAFKCVIEVYYFGEVHMKKGICPICFKNEMDFWKVDLKFLDDCCKSHLSEKREELEEIARRVQLILDDLGVDAAEGRWRRCQKCVWKFLEKPESSCPARVVAVLSFLLILVSSVVMCMGTIPELQVVDSEGNRVEHPTLENVETACIGWFTLEYLLRLFSSPNKLHFALSFMNIVDVLAILPFYVSLTLTHLGARMMELTNVQQAVQALRIMRIARIFKLARHSSGLQTLTYALKRSFKELGLLLMYLAVGIFVFSALGYTMEQSHPETLFKSIPQSFWWAIITMTTVGYGDIYPKTTLGKLNAAISFLCGVIAIALPIHPIINNFVRYYNKQRVLETAAKHELELMELNSSSAEGKPGGSRSDLDTLPPEPAAREGPSWGSRLKLSHSDTFIPLLTEEKHHRTRLQSCK

In the assay “Kv5.1” the target is B2. Nature of the assay: co-IP.
The target in the assay “Kv2.2” is B1. Nature of the assay: co-IP.

Regarding B1, the “percent co-IPed, relative to the subunit's own IP” value with Kv5.1 came out at 7.4%.
Take B2: in the assay with Kv2.2, the “percent co-IPed, relative to the subunit's own IP” value stood at 31%.

Source of the values: paper PMC10849721 (bioRxiv, 2024).
